The record followed here is patent US20240301038A1 (ATRECA, published 2024).

The test has as its target SARS-CoV-2 Spike S1 subunit (Sino Biological) (SARS-CoV-2, UniProt P0DTC2 16-685).

B1: AB-009270 (antibody, V domains shown)
VH: QMQLVQSGPEVKKPGTSVKVSCKASGFTFTSSAMQWVRQARGQRLEWIGWIVVGSGNTNYAQKFQERVTITRDMSTSTAYMELSSLRSEDTAVYYCAVNYCSSTSCYDAFDIWGQGTMVTVSS
VL: not shown
For the molecule B1, the koff is 0.000208 s⁻¹ and the kon came out at 69000 M⁻¹ s⁻¹.

B2: AB-009760 (antibody, V domains shown)
VH: EVQLVQSGAEVKKPGESLKISCKGSGYSFTSYWIGWVRQMPGKGLEWMGIIYPGDSDTRYSPSFQGQVTISADKSISTAYLQWSSLKASDTAMYYCARSRSSDYFDYWGQGTLVTVSS
VL: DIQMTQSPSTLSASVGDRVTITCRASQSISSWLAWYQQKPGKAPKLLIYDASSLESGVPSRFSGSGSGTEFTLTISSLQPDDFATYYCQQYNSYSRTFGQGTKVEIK
B2: the kon is 64100 M⁻¹ s⁻¹.

The koff is the first-order rate constant of dissociation. One may read the kon as a measure of how fast the partners come together. A lower kon goes with slower complex formation.
